Experimental data taken from article PMC9482650, “Quantitative fragmentomics allow affinity mapping of interactomes” (Nature Communications, 2022).

Molecular target: T1, APBA2_1, Q99767
T1 sequence (Q99767 563-664, limits assumed, looked up): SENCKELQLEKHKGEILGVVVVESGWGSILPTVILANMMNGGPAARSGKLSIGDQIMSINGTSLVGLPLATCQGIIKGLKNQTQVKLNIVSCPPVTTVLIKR
Assay: holdup assay
Parameters: key: below the threshold = too weak to quantify, mostly under pKd 3.1 to 4
Conditions: plain residues with an end cap or a label only (N-terminal biotin on a linker: ado-ado)

Question: For LESTTVGTSV [KARS1, Q15046], which pKd is on record?
Answer: below the threshold

Molecular target: T2, APBA3_1, O96018
T2 sequence (O96018 389-490, limits assumed, looked up): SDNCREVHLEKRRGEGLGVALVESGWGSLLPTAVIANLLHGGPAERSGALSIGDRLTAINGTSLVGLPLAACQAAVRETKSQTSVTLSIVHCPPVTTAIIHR
Assay: holdup assay
Parameters: key: below the threshold = too weak to quantify, mostly under pKd 3.1 to 4
Conditions: plain residues with an end cap or a label only (N-terminal biotin on a linker: ado-ado)

Question: Which pKd does the source give for LESTTVGTSV [KARS1, Q15046] here?
Answer: below the threshold

Molecular target: CASK, O14936
Assay: holdup assay
Parameters: key: below the threshold = too weak to quantify, mostly under pKd 3.1 to 4
Conditions: plain residues with an end cap or a label only (N-terminal biotin on a linker: ado-ado)

Sequence of CASK, O14936 (O14936 487-570): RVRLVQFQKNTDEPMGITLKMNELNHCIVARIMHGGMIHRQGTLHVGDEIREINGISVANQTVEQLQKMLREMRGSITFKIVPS

Question: How did the pKd turn out when LESTTVGTSV [KARS1, Q15046] was run?
Answer: below the threshold

Molecular target: T3, DFNB31_2, Q9P202
T3 sequence (Q9P202 274-371, limits assumed, looked up): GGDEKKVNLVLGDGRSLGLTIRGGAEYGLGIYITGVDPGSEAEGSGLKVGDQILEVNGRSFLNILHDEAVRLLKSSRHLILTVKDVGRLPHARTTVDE
Assay: holdup assay
Parameters: key: below the threshold = too weak to quantify, mostly under pKd 3.1 to 4
Conditions: plain residues with an end cap or a label only (N-terminal biotin on a linker: ado-ado)

Question: How did the pKd turn out when LESTTVGTSV [KARS1, Q15046] was run?
Answer: below the threshold

Molecular target: DLG1_1, Q12959
Assay: holdup assay
Parameters: key: below the threshold = too weak to quantify, mostly under pKd 3.1 to 4
Conditions: plain residues with an end cap or a label only (N-terminal biotin on a linker: ado-ado)

Question: With LESTTVGTSV [KARS1, Q15046] as the binder, how does the pKd read?
Answer: 4.27

Molecular target: DLG1_2, Q12959
Assay: holdup assay
Parameters: key: below the threshold = too weak to quantify, mostly under pKd 3.1 to 4
Conditions: plain residues with an end cap or a label only (N-terminal biotin on a linker: ado-ado)

Question: For LESTTVGTSV [KARS1, Q15046], which pKd is on record?
Answer: 4.34

Molecular target: DLG1_3, Q12959
Assay: holdup assay
Parameters: key: below the threshold = too weak to quantify, mostly under pKd 3.1 to 4
Conditions: plain residues with an end cap or a label only (N-terminal biotin on a linker: ado-ado)

Question: How did the pKd turn out when LESTTVGTSV [KARS1, Q15046] was run?
Answer: 3.78

Molecular target: T4, GRIP1_7, Q9Y3R0
T4 sequence (Q9Y3R0 999-1096, limits assumed, looked up): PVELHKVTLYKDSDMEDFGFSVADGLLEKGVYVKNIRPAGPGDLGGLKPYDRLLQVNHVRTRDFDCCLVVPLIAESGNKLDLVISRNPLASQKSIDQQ
Assay: holdup assay
Parameters: key: below the threshold = too weak to quantify, mostly under pKd 3.1 to 4
Conditions: plain residues with an end cap or a label only (N-terminal biotin on a linker: ado-ado)

Question: Which pKd does the source give for LESTTVGTSV [KARS1, Q15046] here?
Answer: below the threshold

Molecular target: GRIP2_7, Q9C0E4
Assay: holdup assay
Parameters: key: below the threshold = too weak to quantify, mostly under pKd 3.1 to 4
Conditions: plain residues with an end cap or a label only (N-terminal biotin on a linker: ado-ado)

Sequence of GRIP2_7, Q9C0E4 (Q9C0E4 934-1023): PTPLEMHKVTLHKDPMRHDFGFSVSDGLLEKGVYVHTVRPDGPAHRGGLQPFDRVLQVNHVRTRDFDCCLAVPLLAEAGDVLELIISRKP

Question: LESTTVGTSV [KARS1, Q15046] was tested. Which pKd did it give?
Answer: below the threshold

Molecular target: Inadl_5, Q8NI35
Assay: holdup assay
Parameters: key: below the threshold = too weak to quantify, mostly under pKd 3.1 to 4
Conditions: plain residues with an end cap or a label only (N-terminal biotin on a linker: ado-ado)

Sequence of Inadl_5, Q8NI35 (Q8NI35 673-780): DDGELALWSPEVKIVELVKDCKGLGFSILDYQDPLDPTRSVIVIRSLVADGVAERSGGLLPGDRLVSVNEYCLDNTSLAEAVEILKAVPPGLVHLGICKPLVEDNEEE

Question: With LESTTVGTSV [KARS1, Q15046] as the binder, how does the pKd read?
Answer: below the threshold

Molecular target: LNX1_3, Q8TBB1
Assay: holdup assay
Parameters: key: below the threshold = too weak to quantify, mostly under pKd 3.1 to 4
Conditions: plain residues with an end cap or a label only (N-terminal biotin on a linker: ado-ado)

Sequence of LNX1_3, Q8TBB1 (Q8TBB1 500-596): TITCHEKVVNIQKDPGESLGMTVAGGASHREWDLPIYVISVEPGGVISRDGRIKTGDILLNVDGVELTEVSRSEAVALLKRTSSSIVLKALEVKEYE

Question: With LESTTVGTSV [KARS1, Q15046] as the binder, how does the pKd read?
Answer: below the threshold

Molecular target: T5, LRRC7, Q96NW7
T5 sequence (Q96NW7 1440-1537, limits assumed, looked up): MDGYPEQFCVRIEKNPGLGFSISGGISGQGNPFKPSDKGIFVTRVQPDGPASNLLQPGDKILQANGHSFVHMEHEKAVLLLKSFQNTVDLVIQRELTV
Assay: holdup assay
Parameters: key: below the threshold = too weak to quantify, mostly under pKd 3.1 to 4
Conditions: plain residues with an end cap or a label only (N-terminal biotin on a linker: ado-ado)

Question: With LESTTVGTSV [KARS1, Q15046] as the binder, how does the pKd read?
Answer: below the threshold

Molecular target: MAGI1_2, Q96QZ7
Assay: holdup assay
Parameters: key: below the threshold = too weak to quantify, mostly under pKd 3.1 to 4
Conditions: plain residues with an end cap or a label only (N-terminal biotin on a linker: ado-ado)

Sequence of MAGI1_2, Q96QZ7 (Q96QZ7 456-580): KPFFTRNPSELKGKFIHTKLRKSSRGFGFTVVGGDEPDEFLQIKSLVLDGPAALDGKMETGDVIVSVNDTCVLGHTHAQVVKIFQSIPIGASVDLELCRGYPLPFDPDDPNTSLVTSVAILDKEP

Question: How did the pKd turn out when LESTTVGTSV [KARS1, Q15046] was run?
Answer: below the threshold

Molecular target: MAGI2_2, Q86UL8
Assay: holdup assay
Parameters: key: below the threshold = too weak to quantify, mostly under pKd 3.1 to 4
Conditions: plain residues with an end cap or a label only (N-terminal biotin on a linker: ado-ado)

Sequence of MAGI2_2, Q86UL8 (Q86UL8 410-522): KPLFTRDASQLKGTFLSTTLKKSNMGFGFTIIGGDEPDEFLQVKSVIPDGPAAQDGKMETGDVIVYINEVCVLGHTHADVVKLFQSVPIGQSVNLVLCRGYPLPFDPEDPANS

Question: With LESTTVGTSV [KARS1, Q15046] as the binder, how does the pKd read?
Answer: below the threshold

Molecular target: MAGI2_4, Q86UL8
Assay: holdup assay
Parameters: key: below the threshold = too weak to quantify, mostly under pKd 3.1 to 4
Conditions: plain residues with an end cap or a label only (N-terminal biotin on a linker: ado-ado)

Sequence of MAGI2_4, Q86UL8 (Q86UL8 772-865): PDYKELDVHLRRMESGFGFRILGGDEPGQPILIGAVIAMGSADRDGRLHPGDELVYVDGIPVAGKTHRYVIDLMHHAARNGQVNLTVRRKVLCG

Question: Which pKd does the source give for LESTTVGTSV [KARS1, Q15046] here?
Answer: 4.31

Molecular target: T6, MPDZ_10, O75970
T6 sequence (O75970 1624-1722, limits assumed, looked up): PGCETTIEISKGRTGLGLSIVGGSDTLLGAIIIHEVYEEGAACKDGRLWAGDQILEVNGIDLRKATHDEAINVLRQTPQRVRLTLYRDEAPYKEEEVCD
Assay: holdup assay
Parameters: key: below the threshold = too weak to quantify, mostly under pKd 3.1 to 4
Conditions: plain residues with an end cap or a label only (N-terminal biotin on a linker: ado-ado)

Question: How did the pKd turn out when LESTTVGTSV [KARS1, Q15046] was run?
Answer: 3.72

Molecular target: T7, MPDZ_12, O75970
T7 sequence (O75970 1857-1958, limits assumed, looked up): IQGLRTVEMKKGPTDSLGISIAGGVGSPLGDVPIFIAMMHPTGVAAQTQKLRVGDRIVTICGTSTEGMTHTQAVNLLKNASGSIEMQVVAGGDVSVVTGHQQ
Assay: holdup assay
Parameters: key: below the threshold = too weak to quantify, mostly under pKd 3.1 to 4
Conditions: plain residues with an end cap or a label only (N-terminal biotin on a linker: ado-ado)

Question: For LESTTVGTSV [KARS1, Q15046], which pKd is on record?
Answer: 3.62

Molecular target: T8, NHERF3_1, Q5T2W1
T8 sequence (Q5T2W1 4-100, limits assumed, looked up): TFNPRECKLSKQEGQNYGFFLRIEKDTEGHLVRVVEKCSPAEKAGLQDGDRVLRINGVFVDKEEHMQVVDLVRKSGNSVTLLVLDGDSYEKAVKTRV
Assay: holdup assay
Parameters: key: below the threshold = too weak to quantify, mostly under pKd 3.1 to 4
Conditions: plain residues with an end cap or a label only (N-terminal biotin on a linker: ado-ado)

Question: LESTTVGTSV [KARS1, Q15046] was tested. Which pKd did it give?
Answer: 4.13

Molecular target: NHERF4_4, Q86UT5
Assay: holdup assay
Parameters: key: below the threshold = too weak to quantify, mostly under pKd 3.1 to 4
Conditions: plain residues with an end cap or a label only (N-terminal biotin on a linker: ado-ado)

Sequence of NHERF4_4, Q86UT5 (Q86UT5 464-550): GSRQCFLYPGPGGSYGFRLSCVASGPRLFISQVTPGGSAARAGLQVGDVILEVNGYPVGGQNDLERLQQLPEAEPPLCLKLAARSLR

Question: LESTTVGTSV [KARS1, Q15046] was tested. Which pKd did it give?
Answer: below the threshold

Molecular target: PDZRN4_1, Q6ZMN7
Assay: holdup assay
Parameters: key: below the threshold = too weak to quantify, mostly under pKd 3.1 to 4
Conditions: plain residues with an end cap or a label only (N-terminal biotin on a linker: ado-ado)

Sequence of PDZRN4_1, Q6ZMN7 (Q6ZMN7 213-318): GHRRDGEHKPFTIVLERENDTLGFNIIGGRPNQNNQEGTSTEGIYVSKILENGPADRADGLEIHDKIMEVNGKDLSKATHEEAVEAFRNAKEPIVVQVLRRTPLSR

Question: Which pKd does the source give for LESTTVGTSV [KARS1, Q15046] here?
Answer: 4.29

Molecular target: T9, PTPN13_1, Q12923
T9 sequence (Q12923 1088-1188, limits assumed, looked up): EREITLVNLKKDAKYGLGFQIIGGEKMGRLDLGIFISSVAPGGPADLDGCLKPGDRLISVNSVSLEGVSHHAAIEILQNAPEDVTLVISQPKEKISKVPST
Assay: holdup assay
Parameters: key: below the threshold = too weak to quantify, mostly under pKd 3.1 to 4
Conditions: plain residues with an end cap or a label only (N-terminal biotin on a linker: ado-ado)

Question: Which pKd does the source give for LESTTVGTSV [KARS1, Q15046] here?
Answer: below the threshold

Molecular target: T10, RHPN1, Q8TCX5
T10 sequence (Q8TCX5 508-602, limits assumed, looked up): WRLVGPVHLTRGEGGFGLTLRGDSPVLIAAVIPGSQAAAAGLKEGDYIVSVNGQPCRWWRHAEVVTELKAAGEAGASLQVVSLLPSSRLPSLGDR
Assay: holdup assay
Parameters: key: below the threshold = too weak to quantify, mostly under pKd 3.1 to 4
Conditions: plain residues with an end cap or a label only (N-terminal biotin on a linker: ado-ado)

Question: Which pKd does the source give for LESTTVGTSV [KARS1, Q15046] here?
Answer: 4.07

Molecular target: T11, SNTA1, Q13424
T11 sequence (Q13424 82-180, limits assumed, looked up): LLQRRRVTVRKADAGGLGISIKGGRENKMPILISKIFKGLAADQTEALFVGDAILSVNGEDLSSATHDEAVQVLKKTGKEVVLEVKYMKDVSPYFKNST
Assay: holdup assay
Parameters: key: below the threshold = too weak to quantify, mostly under pKd 3.1 to 4
Conditions: plain residues with an end cap or a label only (N-terminal biotin on a linker: ado-ado)

Question: How did the pKd turn out when LESTTVGTSV [KARS1, Q15046] was run?
Answer: below the threshold

Molecular target: T12, SYNJ2BP, P57105
T12 sequence (P57105 8-110, limits assumed, looked up): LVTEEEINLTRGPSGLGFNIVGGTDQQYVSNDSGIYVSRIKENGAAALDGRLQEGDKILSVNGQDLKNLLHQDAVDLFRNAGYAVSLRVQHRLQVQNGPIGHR
Assay: holdup assay
Parameters: key: below the threshold = too weak to quantify, mostly under pKd 3.1 to 4
Conditions: plain residues with an end cap or a label only (N-terminal biotin on a linker: ado-ado)

Question: For LESTTVGTSV [KARS1, Q15046], which pKd is on record?
Answer: 5.44

Molecular target: T13, TJP3_3, O95049
T13 sequence (O95049 375-456, limits assumed, looked up): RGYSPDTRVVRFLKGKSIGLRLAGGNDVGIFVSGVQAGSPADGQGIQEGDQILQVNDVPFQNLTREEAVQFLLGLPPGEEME
Assay: holdup assay
Parameters: key: below the threshold = too weak to quantify, mostly under pKd 3.1 to 4
Conditions: plain residues with an end cap or a label only (N-terminal biotin on a linker: ado-ado)

Question: For LESTTVGTSV [KARS1, Q15046], which pKd is on record?
Answer: below the threshold
